The text below walks through data of patent publication US8637237.

This assay addresses mouse RXRα (mRXRα) (mouse) (UniProt P28700). In words: cell-based or functional assay.

Regarding “GGF (human glucocorticoid receptor amino terminus and DBD linked to the carboxyl terminus (LBD) of FXR) (from UniProt P04150 1-509; Q62735 188-469)”, the GGF-dependent transcriptional induction by farnesol (40 µM), FIG. 16D came to 2 fold.
